Laboratory results: patent US12391768B2, “Antibodies to ticagrelor and methods of use” (MEDIMMUNE LIMITED, priority 2014, dated 2025)

What was measured:
[1] = tested on: ADP-induced platelet aggregation in whole blood; experiment: Ex vivo whole blood impedance aggregometry after i.v. dosing of ticagrelor treated mice; type: in vivo; details: for mean ADP-induced aggregation response: n=4
Protocol: The speed of onset and the extent of TICA0212/MEDI2452 mediated reversal of ticagrelor mediated inhibition of ADP-induced platelet aggregation in whole blood (impedance aggregometry) was determined ex vivo after intravenous (i.v.) dosing of ticagrelor in mice. Mice were given ticagrelor i.v. as a bolus of 1200 μg/kg. over 5 minutes, followed by a 15 min continuous infusion of 30 μg/kg/min. After termination of the ticagrelor infusion, when ticagrelor plasma exposure was measured to be in average 1.4 μM, mice were given an i.v. bolus of 250 mg/kg TICA0212/MEDI2452. At 5, 30, and 60 min post TICA0212/MEDI2452 administration mice were sacrificed and blood samples were collected. In this study the ADP-induced aggregation response was measured for 6 min and data expressed as the mean area under the curve of aggregation unit (AU) recorded over time (AU*min).
In carrying out the impedance aggregometry assay, mice were sacrificed and blood samples were collected into 7 μM hirudin. Blood (175 μL) was added to pre-heated […] (37° C., 175 μL) in the Multiplate mini test cells and mixed for 3 min before addition of ADP, 12 μL, to a final concentration of 6.5 μM. The disposable Multiplate mini test cells contain a stir bar and have two separate pair of electrodes that are immersed into the blood sample.
When agonist (ADP) is added and shear is induced by stirring, platelets will start to adhere and aggregate onto the electrodes.
(§1) Mice were pre-treated with a continuous infusion of ticagrelor, 300 μg/kg/min or vehicle for 20 minutes. After stop of infusion, t=0, a bolus dose of TICA0212/MEDI2452 (600 mg/kg) or vehicle (histidine sucrose buffer) was given over 45 seconds and at t=30 minutes bleeding was induced by cutting 5mm from the tip of the tail. The tip of the tail was rinsed with water (2 mL/min) and the blood and water mixture was collected in a small chamber, where a stirrer mixed the fluid to enhance haemolysis and establish a homogeneous solution. Light transmission, at 525 nm, was recorded for 30 minutes when terminal blood samples were collected from the abdominal aorta for platelet aggregation. Light transmittance was transformed to absorbance and used to calculate blood loss as area under the absorbance curve (AUC, absorbance*s) and total bleeding time (BT, s) by plotting absorbance over time. All transmittance below 95% was defined as bleeding. Samples for platelet aggregation and total and free plasma exposure were also collected at end of ticagrelor infusion (t=0) and at time of tail cut (t=30 minutes).

[2] = tested on: mouse tail bleeding; experiment: Prophylactic mouse tail bleeding study; type: in vivo, mice
Protocol: as §1
Studies were approved by the ethical committee for animal research at the University of Göteborg, Sweden. Mice were anaesthetised with isofluran gas (Forenc®, Abbot Scandinavia AB, Sweden). A catheter was inserted in the left jugular vein for administration of vehicle or drug. The body temperature was maintained at 38° C. by external heating.
To translate the effect of TICA0212/MED12452 on platelet aggregation to a potential effect on bleeding, a prophylactic mouse tail bleeding study was performed. Ticagrelor was infused to a mean total ticagrelor and TAM plasma concentration of 7.6 and 0.3 μM, respectively, to provide a significant drug-dependant bleeding window. Immediately after stopping the ticagrelor infusion TICA0212/MEDI2452 was dosed as a single bolus of 600 mg/kg over 30 seconds. […] Bleeding was initiated by a tail cut and monitored for 30 minutes. In vehicle treated mice the mean total ticagrelor and TAM plasma concentration at time of tail cut were 2.4 and 0.6 μM. […] In this prophylactic setting TICA0212/MED12452 normalized ticagrelor dependent bleeding.

[3] = tested on: ticagrelor mediated inhibition of ADP-induced platelet aggregation; experiment: Light transmission aggregometry in human PRP, reversal of ticagrelor; type: cell-based; details: for mean extent of reversal of ticagrelor mediated inhibition: Example 10, 1 μM Fab, n=3
Protocol: The extent and potency of TICA0212/MEDI2452 to reverse ticagrelor or TAM mediated inhibition of ADP-induced platelet aggregation was determined in human platelet rich plasma (PRP) using light transmission aggregometry.
For the in vitro human PRP assay, blood was collected from fasted healthy volunteers by vein puncture of vena cephalica. […] The anticoagulated human blood was centrifuged at 240× g for 15 min. PRP was carefully removed and transferred to a clean vial. Platelet poor plasma (PPP) was prepared by centrifugation of the PRP at 2000× g for 15 min. Light transmission aggregometry (LTA) was evaluated in PRP by the Platelet Aggregation Profiler (PAP-8E, Bio/Data Corporation, PA, USA.). Zero % aggregation was defined as the light transmission of PRP and 100% aggregation was defined as the light transmission of PPP.
PRP was preincubated with 1 μM ticagrelor or TAM for 1 hour before co-incubating with different concentrations of TICA0212 or an isotype control Fab for 30 minutes. Platelet aggregation was initiated by addition of 20 uM ADP and was continuously recorded for 6 min. Data for final aggregation (FA) extent at 6 min was analysed.
The time of onset of TICA0212/MEDI2452 to reverse ticagrelor or TAM was determined in human platelet rich plasma (PRP) using light transmission aggregometry as in example 8. PRP was preincubated with 1 μM ticagrelor or TAM for 1 hour before adding 1 μM TICA0212/MEDI2452 and co-incubating for 5, 10, 15, 30 and 60 min, or adding an isotype control Fab for 30 min. Platelet aggregation was initiated by addition of 20 μM ADP and was continuously recorded for 6 min. Data for final aggregation (FA) extent at 6 min was analyzed.

[4] = 5 min after ticagrelor infusion (1200 μg/kg bolus + 30 μg/kg/min) and bolus (PBS or 250 mg/kg Fab i.v.)
[5] = 30 min after ticagrelor infusion (1200 μg/kg bolus + 30 μg/kg/min) and bolus (PBS or 250 mg/kg Fab i.v.)
[6] = 60 min after ticagrelor infusion (1200 μg/kg bolus + 30 μg/kg/min) and bolus (PBS or 250 mg/kg Fab i.v.)
[7] = ticagrelor versus vehicle, p<0.05
[8] = 600 mg/kg bolus 30 min before tail cut, n=12

| Molecule | mean ADP-induced aggregation response [1, 4] [AU*min] | mean ADP-induced aggregation response [1, 5] [AU*min] | mean ADP-induced aggregation response [1, 6] [AU*min] | bleeding time over 30 minutes, enhancement [2, 7] [fold] | total blood loss over 30 minutes, enhancement [2, 7] | IC50 ([3]; 1 μM ticagrelor, 20 μM ADP, human PRP, 30 min co-incubation, mean n=5, read-out: IC50, half-maximum reversal of ticagrelor mediated inhibition of ADP-induced platelet aggregation) [nM] | mean extent of reversal of ticagrelor ([3]; Example 9, 1:1 conditions (1 μM Fab: 1 μM ticagrelor), 30 min incubation) [%] | mean extent of reversal of ticagrelor mediated inhibition ([3]; 1 μM ticagrelor, co-incubation 5 min) [%] | mean extent of reversal of ticagrelor mediated inhibition ([3]; 1 μM ticagrelor, co-incubation 10 min) [%] | mean extent of reversal of ticagrelor mediated inhibition ([3]; 1 μM ticagrelor, co-incubation 15 min) [%] | mean extent of reversal of ticagrelor mediated inhibition ([3]; 1 μM ticagrelor, co-incubation 30 min) [%] | mean extent of reversal of ticagrelor mediated inhibition ([3]; 1 μM ticagrelor, co-incubation 60 min) [%] | ADP-induced aggregation ([1]; Example 12, 30 minutes after single bolus of 600 mg/kg, ticagrelor 300 μg/kg/min for 20 min) | bleeding time relative ticagrelor alone [2, 8] | blood loss relative ticagrelor alone [2, 8] |
| --- | --- | --- | --- | --- | --- | --- | --- | --- | --- | --- | --- | --- | --- | --- | --- |
| CCCSc1nc(N[C@@H]2C[C@H]2c2ccc(F)c(F)c2)c2nnn([C@@H]3C[C@H](OCCO)[C@@H](O)[C@H]3O)c2n1 [Ticagrelor, (1S,2S,3R,5S)-3-[7-{[(1R,2S)-2-(3,4-difluorophenyl)cyclopropyl]amino}-5-(propylthio)-3H-[1,2,3]triazolo[4,5-d]pyrimidin-3-yl]-5-(2-hydroxyethoxy)cyclopentane-1,2-diol] | 2 | 6 | 14 | ~1.6 | about 3.8 fold |  |  |  |  |  |  |  |  |  |  |
| TICA0212: combination of TICA0162 and TICA0152; VH SEQ ID NO:72, VL SEQ ID NO:77 (antibody, listed as Homo sapiens, V domains shown) VH: QVQLQESGAEVKKPGSSVRVSCKASGGTFDSYSIHWVRQAPGQGLEWMGGIIPAFGTLSSAQDFQARVTISADKSTSTAYMELSGLRSEDTAVYYCARGSFDYYFWSASHPPNDALAIWGQGTLVTVSS VL: QSVVTQPPSVSAAPGQKVTISCSGSNSDIGNNYVSWYQQLPGTAPKLLIYDNNKRPSGIPDRFSGSKSGTSATLAITGLQAGDEADYYCGTWLYDRAVGLFGGGTKVTVL | 147 | 448 | 413 |  |  | 640 | 78 | 85 | 69 | 74 | 80 | 81 | fully normalized | significantly (p<0.05) reversed | significantly (p<0.05) reversed |
